We go through 3 molecules from patent US20250084172A1 (23ANDME, published 2025).

First the molecules themselves.
T1: human soluble ULBP6 haplotype 02 (hULBP6_02) (human, UniProt Q5VY80 26-218)
T1 chain: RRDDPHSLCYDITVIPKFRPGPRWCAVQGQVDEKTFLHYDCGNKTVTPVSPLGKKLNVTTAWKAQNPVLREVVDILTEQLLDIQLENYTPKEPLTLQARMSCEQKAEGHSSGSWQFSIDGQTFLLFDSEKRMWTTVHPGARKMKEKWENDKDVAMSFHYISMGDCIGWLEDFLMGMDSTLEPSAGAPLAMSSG

T2: cell surface ULBP6_02 on PANC02.13 cells (human, UniProt Q5VY80 26-218)
T2 construct: whole, on cells; also called cell surface ULBP6 (PANC02.13)
T2 chain: T1 chain

T3: human soluble ULBP2 (hULBP2) (human, UniProt Q9BZM5 26-216)
T3 construct: also called sULBP2
T3 sequence: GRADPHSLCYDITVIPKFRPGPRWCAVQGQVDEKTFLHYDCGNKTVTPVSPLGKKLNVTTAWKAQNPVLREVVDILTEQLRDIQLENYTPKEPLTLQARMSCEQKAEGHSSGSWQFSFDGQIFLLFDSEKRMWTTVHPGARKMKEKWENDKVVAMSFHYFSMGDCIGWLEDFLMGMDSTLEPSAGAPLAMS

T4: cynomolgus soluble ULBP2/6 (cULBP2/6) (cynomolgus, UniProt Q5VY80 28-217 (human entry), limits assumed)
T4 construct: also called cyno ULBP6; Cyno-cULBP2/6
T4 chain: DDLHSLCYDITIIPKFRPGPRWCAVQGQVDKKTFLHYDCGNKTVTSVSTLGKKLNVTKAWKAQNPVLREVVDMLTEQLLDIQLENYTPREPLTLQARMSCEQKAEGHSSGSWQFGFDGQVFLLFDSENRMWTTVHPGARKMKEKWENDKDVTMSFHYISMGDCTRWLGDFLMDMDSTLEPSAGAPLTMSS

T5: cynomolgus soluble ULBP5 (cULBP5) (cynomolgus)
T5 construct: also called Cyno-cULBP5
T5 chain: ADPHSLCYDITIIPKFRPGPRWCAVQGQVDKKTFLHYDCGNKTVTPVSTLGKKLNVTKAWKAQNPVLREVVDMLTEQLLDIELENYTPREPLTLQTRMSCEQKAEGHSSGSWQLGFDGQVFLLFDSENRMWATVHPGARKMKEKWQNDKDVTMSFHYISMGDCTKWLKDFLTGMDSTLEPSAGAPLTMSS

T6: human soluble ULBP6 haplotype 01 (hULBP6_01) (human, UniProt Q5VY80 27-218, limits assumed)
T6 construct: also called sULBP6_01
T6 chain: T1 chain with R1G, L81R, T122I

T7: cell surface ULBP6_01 on COV644 cells (human, UniProt Q5VY80 27-218)
T7 construct: whole, on cells; also called cell surface ULBP6 (COV644)
T7 chain: T1 chain with R1G, L81R, T122I

B1: humanized 8E8 (h8E8), Fc version not stated (antibody, V domains shown)
VH: QVQLVQSGAEVKKPGSSVKVSCKASGYTFTTYGITWVRQAPGQGLEWIGEIYPGTATSYSNERFKGRATLTADRSTSTAYMELSSLRSEDTAVYFCARRGTYGTYEWYFDVWGRGTLVTVSS
VL: DIQMTQSPSSLSASVGDRVTITCRASENIYSHLAWYQQKPGKSPKLLVYAATNLADGVPSRFSGSGSGTDYTLTISSLQPEDFATYYCQHFWGTPWTFGGGTKVEIK
notes: also called hu8E8; PUR3924
B2: humanized 7B3 (h7B3), Fc version not stated (antibody, V domains shown)
VH: EVQLVESGGGLVQPGGSLRLSCAASGFTFSTYGFHWVRQAPGKGLEWVAYISSNSGTIDYADTVKGRFTISRDNAKNSLYLQMNSLRAEDTAVYYCARQGYGFDNWGQGTTVTVSS
VL: DIQLTQSPSSLSASVGDRVTITCSASSRVSYMNWYQQKPGKSPKIWVYGISNLASGVPSRFSGSGSGTDFTFTISSLQPEDIATYYCQQRSSHPLTFGGGTKVEIK
notes: Recombinant humanized antibody, hIgG1 backbone with kappa light chain; also called hu7B3; PUR3922
B3: human ULBP6 displayed on M13 phage (ULBP6-HA-pIII) (other)
chain: RRDDPHSLCYDITVIPKFRPGPRWCAVQGQVDEKTFLHYDCGNKTVTPVSPLGKKLNVTMAWKAQNPVLREVVDILTEQLLDIQLENYTPKEPLTLQARMSCEQKAEGHSSGSWQFSIDGQTFLLFDSEKRMWTTVHPGARKMKEKWENDKDVAMSFHYISMGDCIGWLEDFLMGMDSTLEPSAGAPLAMSSGYPYDVPDYA
notes: also called ULBP6 phage; not shown: M13 minor coat protein pIII

Where a chain is given by its changes, count along the chain named.

Assay [1] addresses T1, human soluble ULBP6 haplotype 02 …. Briefly: cell-based or functional assay.
Assay [2] has the same target. Put plainly: Biacore binding to ULBP6_02 (SPR). Background: In SPR one partner is held on a chip, and binding of the other changes the refractive index at the surface.
In assay [3] the target is B3. Briefly: phage ELISA: plate coated with the antibody, ULBP6 phage titrated in 3-fold steps from 1.0 O.D./mL, HRP anti-M13 detection, O.D. 450. In general terms: ELISA stands for enzyme-linked immunosorbent assay.
The target of assay [4] is T2, cell surface ULBP6_02 on PANC02.13 cells. Put plainly: flow cytometry on PANC02.13 cells, anti-hFc-APC detection, average of 2 replicates.
Assay [5] addresses T1, human soluble ULBP6 haplotype 02 …. Put plainly: SPR (BIACORE 8K, 37 C); antibody captured on Protein A, soluble ULBP injected.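 Note: ligand injected as threefold dilution series in HBS-P (highest 10 or 50 nM), reference-cell and buffer-subtracted sensorgrams fitted with a 1:1 Langmuir model for on and off rates.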
Assay [6] addresses T3, human soluble ULBP2 (hULBP2). The assay is described as above.
Assay [7] deals with T4, cynomolgus soluble ULBP2/6 (cULBP2/6). Described as above.
Assay [8] addresses T5, cynomolgus soluble ULBP5 (cULBP5). The assay is described as above.
The target of assay [9] is T6, human soluble ULBP6 haplotype 01 …. Described as above.
Assay [10] concerns the target T7, cell surface ULBP6_01 on COV644 cells. Put plainly: flow cytometry on COV644 cells, anti-hFc-APC detection, average of 2 replicates. On the technique in general: In flow cytometry, cells or beads pass a laser one at a time.
For assay [11] the target is unchanged. Briefly: flow cytometry; blocking of hNKG2D-mFc binding to COV644 cells, average of 2 replicates.
In assay [12] the target is T1, human soluble ULBP6 haplotype 02 …. Briefly: cell-based or functional assay.
The target in another assay is anti-HA antibody. Put plainly: phage ELISA: plate coated with anti-HA antibody, phage titrated in 3-fold steps from 1.0 O.D./mL, HRP anti-M13 detection, O.D. 450.
Assay [13] has as its target hNKG2D-Fc (human NKG2D 78-216 with C-terminal long huFc-Flag tag) (human). Put plainly: phage ELISA: plate coated with the ULBP6 receptor NKG2D (PUR4928, construct not stated), phage titrated in 3-fold steps from 1.0 O.D./mL, HRP anti-M13 detection, O.D. 450.

In general, Kd refers to the constant that tells how readily two partners part at equilibrium. A lower Kd goes with higher affinity. The EC50 is the concentration giving half of the maximal effect. The low end stands for higher potency in that assay, the high end for lower potency in that assay. Broadly, the koff is a measure of how fast the partners let go of each other. The term kon denotes the second-order rate constant of association. The term IC50 denotes the concentration that inhibits the measured activity by half. A lower IC50 goes with greater potency in that assay.

Chain of hNKG2D-Fc (human NKG2D 78-216 with C-terminal long huFc-Flag tag) (human) (chain, as listed by the source limits assumed): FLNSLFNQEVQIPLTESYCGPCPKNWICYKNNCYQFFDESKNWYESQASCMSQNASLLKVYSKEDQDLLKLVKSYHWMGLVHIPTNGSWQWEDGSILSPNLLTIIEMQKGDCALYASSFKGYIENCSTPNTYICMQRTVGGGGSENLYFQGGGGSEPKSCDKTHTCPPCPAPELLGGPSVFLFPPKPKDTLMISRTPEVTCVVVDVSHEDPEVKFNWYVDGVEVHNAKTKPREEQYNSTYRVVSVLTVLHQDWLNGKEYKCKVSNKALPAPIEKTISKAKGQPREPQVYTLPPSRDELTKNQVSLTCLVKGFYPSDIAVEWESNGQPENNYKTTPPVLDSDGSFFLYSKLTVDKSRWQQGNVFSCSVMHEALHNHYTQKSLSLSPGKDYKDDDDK

As for B1, the “IC50 (read off the curve); fall of NKG2D MFI on primed PBMCs with 50 nM sULBP6_02” value in assay [1] was roughly 3 nM. The molecule also came in with a Kd in [2] of 1.56 nM.

In the case of B2, the “EC50 (read off the curve)” value in assay [3] was ~0.006 O.D. (phage). In addition, the EC50 in assay [4] amounted to 1.97 nM; in assay [10], 1.93 nM. Also, the “EC50 (read off the curve); NKG2D MFI on primed PBMCs with 50 nM sULBP6_02” value in assay [1] is roughly 20 nM. For the same molecule, the Kd came out at 0.255 nM in assay [5]; 0.673 nM in assay [6]; 0.377 nM in assay [7]; 6.13 nM in [8]; 0.263 nM in assay [9]. In addition, the koff in assay [5] worked out at 0.000379 s⁻¹; in assay [6] it was 0.000507 s⁻¹; in assay [7] it was 0.000542 s⁻¹; in [8], 0.0034 s⁻¹; in [9] it was 0.000382 s⁻¹. Further, the kon in [5] was 1.48e+06 M⁻¹ s⁻¹; in assay [6], 753000 M⁻¹ s⁻¹; in assay [7] it was 1.44e+06 M⁻¹ s⁻¹; in [8], 554000 M⁻¹ s⁻¹; in assay [9], 1.45e+06 M⁻¹ s⁻¹. In assay [11], this molecule displayed an IC50 of 0.17 nM. The “EC50 (read off the curve); IFNg secretion of primed PBMCs on plate-bound MICA with 50 nM sULBP6_02” value in assay [12] is roughly 1 nM.

On to B3, for which the “EC50 (read off the curve)” value (in the assay with anti-HA antibody; in assay [13]) was ~0.01 O.D. (phage) in each case.
